The text below walks through data of patent US20240109954A1 (GENERAL HOSPITAL, published 2024).

For assay [1], the target named is T1, human FcγR3A (F158) (human, UniProt P08637 17-208).
T1 construct: also called huFcγR3A
The assay is described as follows: SPR, mAb printed on chip, FcγR injected; fold-change of KD relative to IgG1, same SPR measurement.

Assay [2] has as its target T2, human FcγR2A (R131) (human, UniProt P12318 34-217).
T2 construct: also called huFcγR2A
T2 sequence: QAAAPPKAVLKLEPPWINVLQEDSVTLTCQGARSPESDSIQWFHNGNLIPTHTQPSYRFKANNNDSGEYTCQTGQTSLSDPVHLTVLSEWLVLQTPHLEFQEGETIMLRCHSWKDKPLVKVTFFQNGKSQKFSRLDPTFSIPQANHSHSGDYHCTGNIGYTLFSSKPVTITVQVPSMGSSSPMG
The assay is described as above.

Assay [3] addresses T2, human FcγR2A (R131). The assay is described as follows: SPR, mAb printed on chip, FcγR injected; SPR KD of Table 6: measurable but very weak (0.03-fold of IgG1). (SPR reads the build-up and loss of mass on a sensor chip optically.)
The next assay has as its target T3, mouse FcγRI (mouse, UniProt P26151 25-297).
T3 construct: also called mFcγRI
T3 sequence: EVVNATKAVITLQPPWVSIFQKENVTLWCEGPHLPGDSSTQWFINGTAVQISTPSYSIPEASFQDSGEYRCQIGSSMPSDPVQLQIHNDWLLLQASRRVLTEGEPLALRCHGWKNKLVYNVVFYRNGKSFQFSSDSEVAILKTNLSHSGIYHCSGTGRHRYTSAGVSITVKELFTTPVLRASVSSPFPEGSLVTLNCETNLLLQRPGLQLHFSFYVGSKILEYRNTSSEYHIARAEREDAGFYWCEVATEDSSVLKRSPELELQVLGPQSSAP
The assay is described as follows: BLI, mAb on anti-human Fab-CH1 sensor; ND = not detected. (In general: BLI is a label-free optical method that tracks binding on a fibre tip over time.)

The target of a further assay is T4, mouse FcγRIV (mouse, UniProt A0A0B4J1G0 21-203).
T4 construct: also called mFcγRIV
T4 sequence: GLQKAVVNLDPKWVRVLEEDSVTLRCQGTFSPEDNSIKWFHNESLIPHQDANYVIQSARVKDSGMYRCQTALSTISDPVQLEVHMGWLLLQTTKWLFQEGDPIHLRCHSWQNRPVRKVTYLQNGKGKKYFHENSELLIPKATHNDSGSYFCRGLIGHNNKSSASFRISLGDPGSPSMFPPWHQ
The assay is described as above.

A further assay addresses T5, mouse FcγRIIb (mouse, UniProt P08101 30-210).
T5 construct: also called mFcγRIIb; mFcγR2b
T5 sequence: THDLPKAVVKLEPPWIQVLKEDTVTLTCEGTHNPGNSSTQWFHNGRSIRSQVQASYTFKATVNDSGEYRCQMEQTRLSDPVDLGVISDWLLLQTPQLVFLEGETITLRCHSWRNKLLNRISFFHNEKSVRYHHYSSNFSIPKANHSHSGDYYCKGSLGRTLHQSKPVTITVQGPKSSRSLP
Described as above.

In a further assay the target is T6, human FcγR3B (human, UniProt O75015 17-200).
T6 construct: also called huFcγR3B
The assay is described as follows: SPR, mAb printed on chip, FcγR injected; ND = not detected.

In another assay the target is T7, human FcγR2B (human, UniProt P31994 43-217).
T7 construct: also called huFcγR2B
T7 sequence: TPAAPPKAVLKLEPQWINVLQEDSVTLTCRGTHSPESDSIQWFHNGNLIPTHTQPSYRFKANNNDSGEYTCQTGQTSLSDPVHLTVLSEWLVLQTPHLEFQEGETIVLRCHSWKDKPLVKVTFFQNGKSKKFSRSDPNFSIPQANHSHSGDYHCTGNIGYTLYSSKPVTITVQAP
The description is as above.

Assay [4] deals with T1, human FcγR3A (F158). The assay is described as follows: SPR, mAb printed on chip, FcγR injected; SPR KD of Table 6: measurable but very weak (0.003-fold of IgG1).
A further assay has as its target T8, mouse FcγRIII (mouse, UniProt P08508 31-215).
T8 construct: also called mFcγRIII; mFcγR3
T8 sequence: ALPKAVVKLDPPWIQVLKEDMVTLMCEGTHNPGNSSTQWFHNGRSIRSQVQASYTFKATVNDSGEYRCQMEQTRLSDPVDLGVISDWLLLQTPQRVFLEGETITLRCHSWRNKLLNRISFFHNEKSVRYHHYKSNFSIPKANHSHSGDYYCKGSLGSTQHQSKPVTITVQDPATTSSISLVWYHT
The assay is described as follows: BLI, mAb on anti-human Fab-CH1 sensor, FcγR in solution; monomeric mAb:receptor affinity of Table 6 (weak binding).

T1 sequence (P08637 17-208): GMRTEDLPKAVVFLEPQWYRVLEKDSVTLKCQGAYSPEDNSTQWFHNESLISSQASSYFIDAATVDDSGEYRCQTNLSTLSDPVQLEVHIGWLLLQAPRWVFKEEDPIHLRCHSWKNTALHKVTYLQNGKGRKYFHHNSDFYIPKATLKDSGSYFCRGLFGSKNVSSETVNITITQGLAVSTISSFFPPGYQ
T6 sequence (O75015 17-200): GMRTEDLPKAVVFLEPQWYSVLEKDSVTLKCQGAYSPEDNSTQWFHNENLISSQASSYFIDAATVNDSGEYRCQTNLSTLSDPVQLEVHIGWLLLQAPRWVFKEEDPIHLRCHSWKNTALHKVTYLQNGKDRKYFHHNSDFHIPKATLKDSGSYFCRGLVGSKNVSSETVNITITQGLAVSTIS

B1: VIC16-LALA (antibody)
heavy: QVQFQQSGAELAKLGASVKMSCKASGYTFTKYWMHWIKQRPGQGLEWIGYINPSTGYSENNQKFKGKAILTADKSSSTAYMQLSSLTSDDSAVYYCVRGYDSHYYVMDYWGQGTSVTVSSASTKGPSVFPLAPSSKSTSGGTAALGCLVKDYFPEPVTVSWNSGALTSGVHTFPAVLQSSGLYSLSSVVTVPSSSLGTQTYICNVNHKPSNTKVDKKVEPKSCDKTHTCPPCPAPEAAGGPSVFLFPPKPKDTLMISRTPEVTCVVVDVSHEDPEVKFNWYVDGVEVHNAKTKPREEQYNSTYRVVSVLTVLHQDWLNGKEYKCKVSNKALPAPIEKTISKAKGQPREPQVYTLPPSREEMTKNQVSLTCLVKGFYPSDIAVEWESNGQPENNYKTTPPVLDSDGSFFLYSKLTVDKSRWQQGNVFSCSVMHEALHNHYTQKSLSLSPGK
light: DIVITQDTASLAVSRGQRATISCRASESVEYYGTTLMQWYQQRPGQPPKLLIYGASNVESGVPARFSGSGSGTDFSLNIHPVEEDDIAMYFCQQSRKVPYTFGGGTKLEIKRTVAAPSVFIFPPSDEQLKSGTASVVCLLNNFYPREAKVQWKVDNALQSGNSQESVTEQDSKDSTYSLSSTLTLSKADYEKHKVYACEVTHQGLSSPVTKSFNRGEC
Broadly, the Kd is the equilibrium constant for the complex coming apart. High values mean a looser complex, low ones a tighter complex. As to B1, the “fold-change relative to IgG1” value with human FcγR3A (F158) [1] was determined as 0.003 fold; in the assay with human FcγR2A (R131) [2] it was 0.03 fold. Moreover, the Kd with human FcγR2A (R131) [3] turned out to be 892 µM; with human FcγR3A (F158) [4], 1.7 mM; with mouse FcγRIII it was 820 µM. Besides, the binding result with mouse FcγRI is listed as “no binding (tested: FcγR from 200 nM)”; with mouse FcγRIV it was “no binding (tested: FcγR from 200 nM)”; in the assay with mouse FcγRIIb, “no binding (tested: FcγR from 600 nM)”; with human FcγR3B, “no binding (tested: FcγR 10 µM to 0.005 µM)”; in the assay with human FcγR2B it was “no binding (tested: FcγR 10 µM to 0.005 µM)”.
